# Results from publication PMC10367427 (Frontiers in Immunology, 2023).
# B1: NbON10-NanoLuc fusion protein (VHH)
# VHH: QVQLVQSGGGLVQPGGSLRLSCAASGLRLGYYTIAWFRQAPGKEREGISCISRSDGSTYYADSVKGRFTISTDNAENTVYLQMNSLKPEDTAVYYCAADFVPASHCAVANTRGYDYWGQGTQVTVSS
# Biological target: T1, SARS-CoV-2 full-length nucleocapsid protein (NP) (SARS-CoV-2, reference (Wuhan-Hu-1; Gene …, UniProt P0DTC9)
# T1 construct: also called full-length NP
# Assay: ELISA
# Conditions: both partners purified
binder,measurement,value
B1,binding result,binds
